Data: patent US20040087783

Target: denatured enolase

B1: N-terminal hexahistidine tagged SAD (protein)
chain: MRGSHHHHHHEPFLRRRLAFLSFFWDKIWPAGGEPDHGTPGSLDPNTDPVPTLPAEPCSPFPQLFLALYDFTARCGGELSVRRGDRLCALEEGGGYIFARRLSGQPSAGLVPITHVAKASPETLSDQPWYFSGVSRTQAQQLLLSPPNEPGAFLIRPSESSLGGYSLSVRAQAKVCHYRVSMAADGSLYLQKGRLFPGLEELLTYYKANWKLIQNPLLQPCMPQKAPRQDVWERPHSEFALGRKLGEGYFGEVWEGLWLGSLPVAIKVIKSANMKLTDLAKEIQTLKGLRHERLIRLHAVCSGGEPVYIVTELMRKGNLQAFLGTPEGRALRLPPLLGFACQVAEGMSYLEEQRVVHRDLAARNVLVDDGLACKVADFGLARLLKDDIYSPSSSSKIPVKWTAPEAANYRVFSQKSDVWSFGVLLHEVFTYGQCPYEGMTNHETLQQIMRGYRLPRPAACPAEVYVLMLECWRSSPEERPSFATLREKLHAIHRCHP
- phosphorylation of substrate, in vitro kinase assay with 32P-ATP, autoradiography: SAD was able to phosphorylate both denatured enolase and poly-Glu-Tyr in vitro
